According to patent publication US20240392276:

Biological target: eGFP displaying an MBP tag connected with a TEV cleavage site (MBP-TEVsite-eGFP)

B1: His-CBD-TEV protease (protein)
chain: HHHHHHGSGSSGLTTNPGVSAWQVNTAYTAGQLVTYNGKTYKCLQPHTSLAGWEPSNVPALWQLQGSGSSGESLFKGPRDYNPISSSICHLTNESDGHTTSLYGIGFGPFIITNKHLFRRNNGTLVVQSLHGVFKVKDTTTLQQHLVDGRDMIIIRMPKDFPPFPQKLKFREPQREERICLVTTNFQTKSMSSMVSDTSCTFPSGDGIFWKHWIQTKDGQCGSPLVSTRDGFIVGIHSASNFTNTNNYFTSVPKNFMELLTNQEAQQWVSGWRLNADSVLWGGHKVFMSKPEEPFQPVKEATQLMN
digestion on Bis-tris protein gel (protease activity): In the presence of His-CBD-TEV, MBP-TEVsite-eGFP is cleaved into the MBP tag (43 kDa) and eGFP (33 kDa)
